The results in this text go back to patent US5204445A, “Peptides and antibodies that inhibit integrin-ligand binding” (The Scripps Research Institute, priority 1989, dated 1993).

In one assay the target is T1, alpha subunit (GPIIb) (Homo sapiens, UniProt P05106+P08514).
T1 construct: Platelets were isolated from fresh human blood collected into acid/citrate/dextrose; endogenous in cells; host or cells: washed human platelets, thrombin-stimulated
In words: Chemical crosslinking of 125I-labeled RGD peptide to platelets (BS3), SDS-PAGE and autoradiography. The format is binding. As to conditions: 125I-Fn-7 20 μM, thrombin-stimulated platelets, 45 min at 22° C., BS3 0.2 mM.

A further assay deals with T2, beta subunit (GPIIIa) (Homo sapiens, UniProt P05106+P08514).
T2 construct: Platelets were isolated from fresh human blood collected into acid/citrate/dextrose; endogenous in cells; host or cells: washed human platelets, thrombin-stimulated or nonstimulated
Described as above. The format is binding. The settings on record: 125I-Fn-7 20 μM, thrombin-stimulated platelets, 45 min at 22° C., BS3 0.2 mM. On the procedure:
FIG. 2 illustrates the results of the crosslinking of an RGD peptide to discrete sites in the beta subunit (GPIIIa) of an Integrin adhesion receptor. The ^125 I-labeled RGD peptide, Fn-7 (20 μM), was bound to platelet (6×10^8 /ml) for 45 min at 22° C., and crosslinked with BS^3 (0.2 mM). The fragmentation patterns after proteolysis were analyzed by SDS-PAGE [Laemmli, Nature. 227:680 (1970)] and autoradiography. […] Lanes 2-7, GPIIIa:Fn-7 bands were excised from gels, subjected to proteolysis and then analyzed by SDS-PAGE (15% gels, reducing conditions). For lanes 2-5, GPIIIA:Fn-7 bands were excised and digestions with V-8 protease were performed within the gel slices as described in Cleveland et al., J. Biol. Chem., 252:1102 (1977).
Platelet binding of Fn-7 followed the protocols previously described for measuring platelet interactions with adhesive proteins and with this and other peptides. See, Ginsberg et al., J. Biol. Chem., 260:3931-3936 (1985); Lam et al , Fed. Proc. Fed. Am. Soc. Exp. Biol., 44:1126 (1985); and Marguerie et al., supra. […]
The cell-bound ligand was recovered by centrifugation through 20% sucrose, and the cells were extracted in PBS containing 1% Nonidet P40 and […] N-ethylmaleimide (Sigma). […] The cross-linked samples were analyzed by electrophoresis (SDS-PAGE) on polyacrylamide vertical slab gels in the buffer system of Laemmli, Nature, […] (1970). […]

“KYGRRGDS [Fn-7, RGD-peptide with lysine for crosslinking and tyrosine for radioiodination]”: in the assay with alpha subunit (GPIIb), the “crosslinking to the alpha subunit (GPIIb)” value is “more minor crosslinking”. Also, the “crosslinking to the beta subunit (GPIIIa)” value with beta subunit (GPIIIa) is on record as “predominance”.
